Experimental data from publication PMC9482650, “Quantitative fragmentomics allow affinity mapping of interactomes” (Nature Communications, 2022).

T1: SHANK3, Q9BYB0
T1 sequence (Q9BYB0 641-750, limits assumed, looked up): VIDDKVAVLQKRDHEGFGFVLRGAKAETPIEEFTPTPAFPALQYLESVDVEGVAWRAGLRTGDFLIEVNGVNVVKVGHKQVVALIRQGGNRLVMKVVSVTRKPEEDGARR

T2: PDZD7_1, Q9H5P4
T2 sequence (Q9H5P4 81-178, limits assumed, looked up): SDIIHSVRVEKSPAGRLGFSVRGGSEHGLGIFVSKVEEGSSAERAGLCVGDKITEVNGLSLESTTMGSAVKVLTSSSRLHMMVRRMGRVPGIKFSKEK

T3: MPDZ_3, O75970
T3 sequence (O75970 372-473, limits assumed, looked up): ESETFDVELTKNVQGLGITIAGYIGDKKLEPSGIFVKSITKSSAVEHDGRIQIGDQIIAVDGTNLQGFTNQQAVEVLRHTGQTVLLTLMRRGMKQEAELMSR

T4: TJP3_1, O95049
T4 sequence (O95049 6-103, limits assumed, looked up): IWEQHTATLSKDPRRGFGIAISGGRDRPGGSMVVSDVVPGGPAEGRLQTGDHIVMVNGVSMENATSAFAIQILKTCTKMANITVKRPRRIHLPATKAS

T5: MPP5, Q8N3R9
T5 sequence (Q8N3R9 251-346, limits assumed, looked up): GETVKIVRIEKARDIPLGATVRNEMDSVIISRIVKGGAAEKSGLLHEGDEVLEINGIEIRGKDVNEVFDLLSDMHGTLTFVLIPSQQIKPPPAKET

T6: DVL1, O14640
T6 sequence (O14640 246-333, limits assumed, looked up): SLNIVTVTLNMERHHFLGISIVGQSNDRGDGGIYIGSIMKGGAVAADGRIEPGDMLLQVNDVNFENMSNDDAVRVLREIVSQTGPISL

T7: MAGI2_1, Q86UL8
T7 sequence (Q86UL8 12-111, limits assumed, looked up): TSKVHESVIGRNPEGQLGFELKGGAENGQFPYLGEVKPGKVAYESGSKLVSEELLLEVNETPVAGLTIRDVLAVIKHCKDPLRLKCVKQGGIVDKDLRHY

T8: PDZD2_1, O15018
T8 sequence (O15018 80-192, limits assumed, looked up): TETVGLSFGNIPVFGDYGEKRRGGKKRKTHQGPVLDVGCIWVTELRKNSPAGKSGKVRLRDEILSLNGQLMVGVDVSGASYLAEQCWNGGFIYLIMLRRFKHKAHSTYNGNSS

T9: PDZD4, Q76G19
T9 sequence (Q76G19 125-224, limits assumed, looked up): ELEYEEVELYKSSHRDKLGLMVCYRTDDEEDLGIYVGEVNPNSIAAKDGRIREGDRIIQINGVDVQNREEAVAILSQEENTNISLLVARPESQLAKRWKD

T10: PTPN4, P29074
T10 sequence (P29074 512-599, limits assumed, looked up): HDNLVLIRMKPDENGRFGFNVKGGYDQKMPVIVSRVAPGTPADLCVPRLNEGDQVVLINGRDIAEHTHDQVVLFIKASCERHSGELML

T11: PTPN13_4, Q12923
T11 sequence (Q12923 1783-1878, limits assumed, looked up): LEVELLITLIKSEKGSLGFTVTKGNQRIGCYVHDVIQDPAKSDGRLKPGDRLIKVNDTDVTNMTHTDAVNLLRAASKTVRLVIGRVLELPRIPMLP

T12: SIPA1L3, O60292
T12 sequence (O60292 961-1052, limits assumed, looked up): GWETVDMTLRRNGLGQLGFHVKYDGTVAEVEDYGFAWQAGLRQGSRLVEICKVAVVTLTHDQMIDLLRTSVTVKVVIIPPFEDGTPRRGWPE


How the values were obtained:
Test in all cases: holdup assay
Set-up in all cases: key: below the threshold = too weak to quantify, mostly under pKd 3.1 to 4
Conditions in all cases: plain residues with an end cap or a label only (N-terminal biotin on a linker: ttds)
[1] = biological target: MAST3, O60307
MAST3, O60307, sequence (O60307 945-1048): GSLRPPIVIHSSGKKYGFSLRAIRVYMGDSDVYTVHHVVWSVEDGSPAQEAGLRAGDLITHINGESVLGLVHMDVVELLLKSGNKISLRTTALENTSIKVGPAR

[2] = biological target: T1, SHANK3, Q9BYB0
[3] = biological target: Inadl_7, Q8NI35
Inadl_7, Q8NI35, sequence (Q8NI35 1219-1332): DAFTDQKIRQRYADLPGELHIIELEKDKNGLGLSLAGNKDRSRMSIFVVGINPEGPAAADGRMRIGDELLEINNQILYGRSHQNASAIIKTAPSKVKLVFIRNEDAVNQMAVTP

[4] = biological target: MAGI3_4, Q5TCQ9
MAGI3_4, Q5TCQ9, sequence (Q5TCQ9 716-815): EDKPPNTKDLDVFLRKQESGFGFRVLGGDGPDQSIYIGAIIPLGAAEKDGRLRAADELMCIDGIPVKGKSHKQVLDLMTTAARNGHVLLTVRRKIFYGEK

[5] = biological target: T2, PDZD7_1, Q9H5P4
[6] = biological target: CARD14, Q9BXL6
CARD14, Q9BXL6, sequence (Q9BXL6 558-663): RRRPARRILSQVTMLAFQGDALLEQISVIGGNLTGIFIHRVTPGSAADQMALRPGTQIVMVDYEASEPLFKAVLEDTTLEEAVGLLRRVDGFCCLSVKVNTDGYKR

[7] = biological target: T3, MPDZ_3, O75970
[8] = biological target: AHNAK2, Q8IVF2
AHNAK2, Q8IVF2, sequence (Q8IVF2 108-193): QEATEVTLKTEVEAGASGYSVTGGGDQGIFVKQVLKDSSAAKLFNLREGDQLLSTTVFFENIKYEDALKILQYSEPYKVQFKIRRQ

[9] = biological target: PARD3B_3, Q8TEW8
PARD3B_3, Q8TEW8, sequence (Q8TEW8 490-594): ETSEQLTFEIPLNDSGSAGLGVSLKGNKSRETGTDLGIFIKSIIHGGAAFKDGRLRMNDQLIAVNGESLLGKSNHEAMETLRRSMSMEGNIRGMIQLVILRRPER

[10] = biological target: SCRIB_4, Q14160
SCRIB_4, Q14160, sequence (Q14160 1095-1204): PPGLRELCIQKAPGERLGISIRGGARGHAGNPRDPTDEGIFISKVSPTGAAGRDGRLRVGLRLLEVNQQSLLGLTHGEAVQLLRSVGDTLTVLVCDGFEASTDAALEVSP

[11] = biological target: T4, TJP3_1, O95049
[12] = biological target: MAGI3_6, Q5TCQ9
MAGI3_6, Q5TCQ9, sequence (Q5TCQ9 1014-1103): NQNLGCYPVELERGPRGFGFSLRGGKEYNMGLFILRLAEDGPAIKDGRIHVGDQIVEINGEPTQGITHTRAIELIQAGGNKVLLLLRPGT

[13] = biological target: NHERF4_3, Q86UT5
NHERF4_3, Q86UT5, sequence (Q86UT5 325-412): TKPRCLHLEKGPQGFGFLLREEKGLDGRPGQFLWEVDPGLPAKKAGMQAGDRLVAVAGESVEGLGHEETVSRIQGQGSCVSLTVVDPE

[14] = biological target: T5, MPP5, Q8N3R9
[15] = biological target: T6, DVL1, O14640
[16] = biological target: DLG5_2, Q8TDM6
DLG5_2, Q8TDM6, sequence (Q8TDM6 714-800): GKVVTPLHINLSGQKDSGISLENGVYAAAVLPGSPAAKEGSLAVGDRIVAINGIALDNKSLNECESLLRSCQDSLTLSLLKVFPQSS

[17] = biological target: MAGIX, Q9H6Y5
MAGIX, Q9H6Y5, sequence (Q9H6Y5 118-211): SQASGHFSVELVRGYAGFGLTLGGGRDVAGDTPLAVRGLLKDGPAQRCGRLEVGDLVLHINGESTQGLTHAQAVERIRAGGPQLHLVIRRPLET

[18] = biological target: T7, MAGI2_1, Q86UL8
[19] = biological target: T8, PDZD2_1, O15018
[20] = biological target: T9, PDZD4, Q76G19
[21] = biological target: MAGI1_5, Q96QZ7
MAGI1_5, Q96QZ7, sequence (Q96QZ7 986-1098): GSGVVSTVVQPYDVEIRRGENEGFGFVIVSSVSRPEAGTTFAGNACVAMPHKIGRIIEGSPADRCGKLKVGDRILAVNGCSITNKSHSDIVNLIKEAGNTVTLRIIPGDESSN

[22] = biological target: T10, PTPN4, P29074
[23] = biological target: T11, PTPN13_4, Q12923
[24] = biological target: GRIP2_2, Q9C0E4
GRIP2_2, Q9C0E4, sequence (Q9C0E4 137-245): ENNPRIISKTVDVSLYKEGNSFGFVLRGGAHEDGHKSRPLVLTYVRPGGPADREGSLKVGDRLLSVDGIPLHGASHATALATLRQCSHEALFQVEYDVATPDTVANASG

[25] = biological target: T12, SIPA1L3, O60292

Row | Binder | pKd [1] | pKd [3] | pKd [4] | pKd [5] | pKd [6] | pKd [7] | pKd [8] | pKd [9] | pKd [10] | pKd [11] | pKd [12] | pKd [13] | pKd [14] | pKd [15] | pKd [16] | pKd [17] | pKd [18] | pKd [19] | pKd [20] | pKd [21] | further results
1 | TGDTLEKFVEGL [CBP, Q92793] | below the threshold | below the threshold | below the threshold | below the threshold | below the threshold | 4.11 | below the threshold | below the threshold | below the threshold | below the threshold | below the threshold | 3.86 | below the threshold | below the threshold | below the threshold | below the threshold | below the threshold | below the threshold | below the threshold | 4.17 | pKd [2]: below the threshold; pKd [22]: below the threshold
2 | QPGTPTRTAV [MAP2K2, P36507] | below the threshold | below the threshold | below the threshold | below the threshold | below the threshold | below the threshold | below the threshold | below the threshold | below the threshold | below the threshold | below the threshold | below the threshold | below the threshold | below the threshold | below the threshold | below the threshold | below the threshold | below the threshold | 4.21 | below the threshold | pKd [2]: below the threshold; pKd [23]: below the threshold; pKd [24]: below the threshold; pKd [25]: below the threshold; pKd [22]: below the threshold
3 | NYWPGKETQL [SLCO1C1, Q9NYB5] | below the threshold | below the threshold | below the threshold | below the threshold | below the threshold | below the threshold | 4.41 | below the threshold | 4.83 | below the threshold | 4.36 | 4.56 | below the threshold | below the threshold | below the threshold | 5.35 | below the threshold | below the threshold | below the threshold | 4.47 | pKd [2]: below the threshold; pKd [23]: below the threshold; pKd [24]: below the threshold; pKd [25]: below the threshold; pKd [22]: 4.91
4 | CLDTSRETDL [KCNA5, P22460] | below the threshold | below the threshold | below the threshold | below the threshold | below the threshold | below the threshold | below the threshold | below the threshold | below the threshold | below the threshold | 4.34 | below the threshold | below the threshold | below the threshold | below the threshold | below the threshold | below the threshold | below the threshold | below the threshold | below the threshold | pKd [2]: below the threshold; pKd [23]: below the threshold; pKd [24]: below the threshold; pKd [25]: below the threshold; pKd [22]: 4.07

The next lines start with results.

Row | pKd [1] | pKd [3] | pKd [4] | pKd [5] | pKd [6] | pKd [7] | pKd [8] | pKd [9] | pKd [10] | pKd [11] | pKd [12] | pKd [13] | pKd [14] | pKd [15] | pKd [16] | pKd [17] | pKd [18] | pKd [19] | pKd [20] | pKd [21] | Binder | further results
5 | 3.59 | 3.65 | below the threshold | below the threshold | below the threshold | below the threshold | below the threshold | below the threshold | below the threshold | below the threshold | below the threshold | below the threshold | below the threshold | below the threshold | below the threshold | below the threshold | below the threshold | below the threshold | below the threshold | 4.53 | DEDQHTQITKV [PTEN, P60484] | pKd [22]: below the threshold
6 | below the threshold | below the threshold | 3.59 | below the threshold | below the threshold | 3.81 | below the threshold | below the threshold | below the threshold | below the threshold | below the threshold | below the threshold | below the threshold | below the threshold | below the threshold | below the threshold | below the threshold | below the threshold | below the threshold | below the threshold | RRVRKLPSTTL [RPS6KA1, Q15418] | pKd [2]: 4.14; pKd [23]: below the threshold; pKd [24]: below the threshold; pKd [25]: below the threshold; pKd [22]: below the threshold
